Values joined by “and” are separate entries in the source; they are usually repeats but may differ in a detail not shown here. Equal entries are not always repeated.
B1: Arginase, O25949 (parent)
chain: MILVGLEAELGASKRGTDKGVRRLREALSATHGDVIKGMQTITQERCVLYKEFRYAKNFEDYYLFCKENLIPCMKEVFEKKEFPLILSSEHANMFGIFQAFRSVHKDKKIGILYLDAHADIHTAYDSDSKHIHGMPLGMVLNRVRSGFNRMSESEEKAWQKLCSLGLEKGGLEIDPKCLVYFGVRSTEQSERDVIRELQIPLFSVDAIRENMQEVVQKTKESLKAVDIIYLSLDLDIMDGKLFTSTGVRENNGLSFDELKQLLGLLLESFKDRLKAVEVTEYNPTVSIKHNNEEEKQVLEILDLIINSCKIKDKKHSFARSY

Variants of: B1
Settings: Helicobacter pylori (strain ATCC 700392 / 26695); pH 7.2; Thermal; CD; Tris-HCl 20 mM; transition: 2; reversible: yes; structure 4G3H; whole UniProt chain shown

## D126A
  Tm: 61 °C
  change of melting temperature, mutant - wild type (higher = more stable): -7 °C

## E153A
  Tm: 69.8 °C
  change of melting temperature, mutant - wild type (higher = more stable): -0.2 °C

## E156A
  Tm: 59 °C
  change of melting temperature, mutant - wild type (higher = more stable): -9 °C

## K157A
  Tm: 57.7 °C
  change of melting temperature, mutant - wild type (higher = more stable): -10.3 °C

## W159A
  Tm: 51 °C
  change of melting temperature, mutant - wild type (higher = more stable): -17 °C

## W159F
  Tm: 64.8 °C and 59.9 °C
  change of melting temperature, mutant - wild type (higher = more stable): -5.2 °C and -8.1 °C

## Q160A
  Tm: 64.4 °C and 62.8 °C
  change of melting temperature, mutant - wild type (higher = more stable): -5.6 °C and -5.2 °C

## S164A
  Tm: 70.7 °C
  change of melting temperature, mutant - wild type (higher = more stable): 0.7 °C

## L162A
  change of melting temperature, mutant - wild type (higher = more stable): -2.7 °C and -7 °C

From FireProtDB (doi:10.1021/bi301421v)
